Experimental data from patent US20220332804A1 (CSL INNOVATION, published 2022).

Experiments:
Assay in all cases: SPR; KD relative to WT C2;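 further: biacore SPR at 37 °C, anti-C2 mAbs captured on an anti-human IgG chip, alanine or serine C2 surface mutants tested, KD from 1:1 fit compared with wild-type C2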
human C2 N424A = molecular target: T1, human C2 N424A (human, UniProt P06681 21-752)
T1 sequence: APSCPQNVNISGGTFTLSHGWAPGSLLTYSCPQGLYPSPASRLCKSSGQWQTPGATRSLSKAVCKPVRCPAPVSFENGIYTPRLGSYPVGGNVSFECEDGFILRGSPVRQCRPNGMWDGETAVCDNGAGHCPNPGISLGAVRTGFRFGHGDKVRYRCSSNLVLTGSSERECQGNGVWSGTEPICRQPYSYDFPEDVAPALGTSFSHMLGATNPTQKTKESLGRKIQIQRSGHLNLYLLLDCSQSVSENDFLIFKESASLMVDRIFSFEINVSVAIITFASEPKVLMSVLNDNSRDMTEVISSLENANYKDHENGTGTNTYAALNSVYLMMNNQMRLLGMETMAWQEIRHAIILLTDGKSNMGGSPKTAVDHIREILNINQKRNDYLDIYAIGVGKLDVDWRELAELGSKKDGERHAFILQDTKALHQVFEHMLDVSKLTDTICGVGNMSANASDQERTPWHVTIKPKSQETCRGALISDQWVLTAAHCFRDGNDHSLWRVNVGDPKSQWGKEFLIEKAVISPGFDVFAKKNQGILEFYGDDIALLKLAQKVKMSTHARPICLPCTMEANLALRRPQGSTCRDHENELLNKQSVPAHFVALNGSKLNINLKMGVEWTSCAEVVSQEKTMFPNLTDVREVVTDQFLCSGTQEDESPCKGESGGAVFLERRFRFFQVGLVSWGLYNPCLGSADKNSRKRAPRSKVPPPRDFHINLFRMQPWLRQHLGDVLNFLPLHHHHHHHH

human C2 N327A = molecular target: T2, human C2 N327A (human, UniProt P06681 21-752)
T2 sequence: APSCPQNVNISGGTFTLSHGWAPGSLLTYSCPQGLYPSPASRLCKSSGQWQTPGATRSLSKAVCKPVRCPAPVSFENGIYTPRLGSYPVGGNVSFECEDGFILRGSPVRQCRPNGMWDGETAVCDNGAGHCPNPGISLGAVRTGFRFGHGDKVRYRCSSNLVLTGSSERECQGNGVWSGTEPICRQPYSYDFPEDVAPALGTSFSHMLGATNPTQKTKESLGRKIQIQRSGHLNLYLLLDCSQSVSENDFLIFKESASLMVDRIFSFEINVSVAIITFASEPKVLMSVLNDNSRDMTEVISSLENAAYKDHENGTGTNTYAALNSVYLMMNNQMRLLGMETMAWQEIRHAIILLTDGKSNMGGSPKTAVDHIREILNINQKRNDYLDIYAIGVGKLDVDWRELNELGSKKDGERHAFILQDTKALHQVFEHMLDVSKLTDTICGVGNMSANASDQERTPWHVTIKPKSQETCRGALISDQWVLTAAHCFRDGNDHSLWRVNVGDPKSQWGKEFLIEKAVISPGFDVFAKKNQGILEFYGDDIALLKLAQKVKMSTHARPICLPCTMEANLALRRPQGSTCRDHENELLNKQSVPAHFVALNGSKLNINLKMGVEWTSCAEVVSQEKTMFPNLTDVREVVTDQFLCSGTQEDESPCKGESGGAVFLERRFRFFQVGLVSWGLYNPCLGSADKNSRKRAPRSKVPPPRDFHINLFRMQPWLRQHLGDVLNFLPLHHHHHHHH

human C2 L279A = molecular target: T3, human C2 L279A (human, UniProt P06681 21-752)
T3 sequence: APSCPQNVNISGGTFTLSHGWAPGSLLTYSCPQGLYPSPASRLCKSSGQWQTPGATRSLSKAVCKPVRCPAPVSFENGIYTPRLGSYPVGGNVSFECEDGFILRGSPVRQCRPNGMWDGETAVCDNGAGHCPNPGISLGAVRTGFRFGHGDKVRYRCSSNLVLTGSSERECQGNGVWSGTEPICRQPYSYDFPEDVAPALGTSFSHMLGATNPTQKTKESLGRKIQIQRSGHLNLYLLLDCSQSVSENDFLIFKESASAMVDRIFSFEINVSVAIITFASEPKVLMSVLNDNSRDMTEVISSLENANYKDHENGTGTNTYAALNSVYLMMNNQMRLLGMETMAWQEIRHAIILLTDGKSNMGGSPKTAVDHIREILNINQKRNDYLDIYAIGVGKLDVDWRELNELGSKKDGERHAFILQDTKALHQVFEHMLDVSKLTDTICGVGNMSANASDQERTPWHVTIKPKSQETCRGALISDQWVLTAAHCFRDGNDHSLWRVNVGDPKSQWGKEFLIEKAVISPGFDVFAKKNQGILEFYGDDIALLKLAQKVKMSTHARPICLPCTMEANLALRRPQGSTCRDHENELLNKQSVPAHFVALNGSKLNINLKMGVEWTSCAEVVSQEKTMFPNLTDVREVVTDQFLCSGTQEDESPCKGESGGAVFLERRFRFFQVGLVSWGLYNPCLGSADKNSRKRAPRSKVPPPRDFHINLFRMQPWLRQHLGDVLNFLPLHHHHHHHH

human C2 R434A = molecular target: T4, human C2 R434A (human, UniProt P06681 21-752)
T4 sequence: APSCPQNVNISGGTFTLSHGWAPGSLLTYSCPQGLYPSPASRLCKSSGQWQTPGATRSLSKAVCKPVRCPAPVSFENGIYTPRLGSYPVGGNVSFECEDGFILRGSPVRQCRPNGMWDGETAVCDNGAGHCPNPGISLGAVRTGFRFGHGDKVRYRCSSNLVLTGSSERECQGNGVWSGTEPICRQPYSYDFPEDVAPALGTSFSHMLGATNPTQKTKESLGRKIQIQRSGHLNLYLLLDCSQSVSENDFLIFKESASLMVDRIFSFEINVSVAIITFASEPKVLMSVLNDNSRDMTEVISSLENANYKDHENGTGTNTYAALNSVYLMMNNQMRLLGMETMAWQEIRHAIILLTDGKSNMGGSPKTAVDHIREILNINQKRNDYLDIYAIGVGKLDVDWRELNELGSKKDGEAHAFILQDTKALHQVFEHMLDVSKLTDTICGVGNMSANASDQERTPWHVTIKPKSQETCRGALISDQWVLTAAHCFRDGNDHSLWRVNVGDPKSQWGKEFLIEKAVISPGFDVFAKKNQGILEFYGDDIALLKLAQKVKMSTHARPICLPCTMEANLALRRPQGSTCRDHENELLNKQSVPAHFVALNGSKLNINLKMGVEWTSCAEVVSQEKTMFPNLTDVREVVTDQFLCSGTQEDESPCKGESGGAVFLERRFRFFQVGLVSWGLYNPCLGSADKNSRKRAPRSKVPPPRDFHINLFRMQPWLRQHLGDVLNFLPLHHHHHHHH

- Fold diff (human C2 N424A): 1 fold
- Fold diff (human C2 N327A): 7 fold
- Fold diff (human C2 L279A): 8 fold
- Fold diff (human C2 R434A): 7 fold
B1: RF16-214 (antibody, V domains shown)
VH: EVQLLESGGGLVQPGGSLRLSCAASGFTFSWYQMMWVRQAPGKGLEWVSRIYPSGGGTAYADSVKGRFTISRDNSKNTLYLQMNSLRAEDTAVYYCARDAGYGDNWGQGTLVTVSS
VL: QSALTQPPSVSVSPGQTASITCSGDKLGEKYASWYQQKAGQSPVMVIYQDRKRPSGIPERFSGSNSGNTATLTISGTQAMDEADYYCQAWDTRAVVFGGGTKLTVLG
